{"source": "a protein production outcome set (Wang et al. 2014)", "data": [{"experiment": "label from the status in PepcDB records", "values": [{"sequence": "PSYTVTVATGSQWFAGTDDYIYLSLVGSAGCSEKHLLDKPFYNDFERGAVDSYDVTVDEELGEIQLVRIEKRKYWLNDDWYLKYITLKTPHGDYIEFPCYRWITGDVEVVLRDGRAKLARDDQIHILKQHRRKELETRQKQYRWMEWNPGFPLSIDAKCHKDLPRDIQFDSEKGVDFVLNYSKAMENLFINRFMHMFQSSWNDFADFEKIFVKISNTISERVMNHWQEDLMFGYQFLNGCNPVLIRRCTELPEKLPVTTEMVECSLERQLSLEQEVQQGNIFIVDFELLDGIDANKTDPCTLQFLAAPICLLYKNLANKIVPIAIQLNQIPGDENPIFLPSDAKYDWLLAKIWVRSSDFHVHQTITHLLRTHLVSEVFGIAMYRQLPAVHPIFKLLVAHVRFTIAINTKAREQLICECGLFDKANATGGGGHVQMVQRAMKDLTYASLCFPEAIKARGMESKEDIPYYFYRDDGLLVWEAIRTFTAEVVDIYYEGDQVVEEDPELQDFVNDVYVYGMRGRKSSGFPKSVKSREQLSEYLTVVIFTASAQHAAVNFGQYDWCSWI", "protein production": "failed"}, {"sequence": "PVGAVMTPRPEVDMIDLSDPPDQIRATFASSPHSRLPATDGDRDDPIGIIQSKDVLEVYLRGETPDFRALVRDAPVIPASADARDALIMLRNASVHMGLVYDEFGGFEGVVSTADILESIVGAFSSEDG", "protein production": "failed"}, {"sequence": "PVPATPILQLEECCTHNNSATLSWKQPPLSTVPADGYILELDDGNGGQFREVYVGKETMCTVDGLHFNSTYNARVKAFNKTGVSPYSKTLVLQTSEG", "protein production": "not failed"}, {"sequence": "PYYLFMTMYWHHTSTTPVSTVLITHGYAEHQGRYSALVRSLLNYNFDVVTFDLPGHGYAPGPRACVDVDKLVDFHVALRHRAEQDCRLRTETMCLFGHSMGGLITALSVLEDSSNVSAVALSGPAFSPFPKTPRVVTRMLRCSARIAPRLKVLALPQDAISRDPEVVAAYANDPRNYTGRVPLLTGASMALAGQKALAQASQWDRSVPLLVMHGSADRLADIEGSRNFAASAGGTMRPVDGAFHEIFNEPEAPQLRAELCEWLHANCG", "protein production": "failed"}, {"sequence": "QEQRMSHHYATIEVSQQLRQLLGDQLVILLRETPDGQALERSQNDFRRVLEQGRANTVDSAEQAALDGVRDAYLQLQAHTPALLEAPMADNDGFSEAFNGLRLRLQDLQQLALAGISEAETSARHRA", "protein production": "not failed"}, {"sequence": "QETGISMIGERTNSNGSKAFREAMLSGDWEKCVDIAKQQTRDGAHMLDLCVDYVGRDGTADMATLAALLATSSTLPIMIDSTEPEVIRTGLEHLGGRSIVNSVNFEDGDGPESRYQRIMKLVKQHGAAVVALTIDEEGQARTAEHKVRIAKRLIDDITGSYGLDIKDIVVDCLTFPISTGQEETRRDGIETIEAIRELKKLYPEIHTTLGLSNISFGLNPAARQVLNSVFLNECIEAGLDSAIAHSSKILPMNRIDDRQREVALDMVYDRRTEDYDPLQEFMQLFEGVSAAD", "protein production": "not failed"}, {"sequence": "QGSVSTNLQEKGLVVSIVDTLMFDTGRAEVKPDFQKKLVEIGEILKTIDNYIRIEGHTDNTPISNSQYASNIELGSARSNNVEHLFIDVSKIPVTQMYTVSYADTRPVADNNSEAGKARNRRVDIVILNSK", "protein production": "failed"}, {"sequence": "QIAAVDPAGMSVIRDRNQLFRVNSAGEVENTYTLKVINKTQQVQEYNLDVKGLNDVSWYGKQTIQVEPGEVLNLPMSLGADPDKLNSAITTIQFILTDKSNEFTIEVESRFIKKL", "protein production": "not failed"}, {"sequence": "QIAELPYAMRINNSFEARKSPHAFVNLLNYILLEKSGADIACTALFDSANGFDEKITMRDIINNYPFPNTFKVIELSGKDIKLAIERSASYFDIVNHKITVNKEFLEPKPQHFNYDIFAGIQYTIHVSHPYGERVSDLLINDAPIQSDQIYTICVNNYRAVGGGNYDMYVNKPVIKDIQIEGAQLLIDYLSHNDLSQIPQVIDFNVVK", "protein production": "failed"}, {"sequence": "QKVQDAAMQEDPKALDEVVIVARQNINELDIRAKSGVVQRVDVERLNSKPMIDMSLALQGAVPGLIITNTGDLGSKPEIRIRGNSSFRKGDMANEPLYVMDGKVISSDAFMTLNPADIQEIKVLKDAVACALYGIKAANGVIEITSQRGNPDG", "protein production": "failed"}, {"sequence": "QPTGTMTTDSKLTSKESALALTNSAYLKNTVFNKMTPGWGCNTILLLEYMTGKATSENSQSNYKDFQDLLVSDRSLYIEDWWQDCYAGIANCNLALQKLGEFENLDASLVNGYMAEVKFMRALYYFYLVRIFGDVPKITTVQSELGELQVSRAPVKEIYDEIIIPDLLEAEQSDLAFSDHTGRVSMGAVKALLADVYLTYAGYPLQGGKSYYAESAKRSLEVIKSNEYTLFTDYESLRLPSQNNKGEFIYQVQFSLNKRHNESVRIFLPSRSGISAYDLEYGSLIPTKEFVESFEKGDKRTEEKQYFFTNYKGHPSKFSPGAAELEFMDLNGYYIYKFFDQVAVDNTAKSDLNWSVYRYTDVLLMYAEAQVNADGTPNQQSIDIVNQIRGRAGLAPFKQTNASAFLEEVWDQRYFDLCYENKMWFDMLRTRKIRDDKSGEYVDFIGYKTNWGKVYTETQLLFPIPLSERQANPNLTQNQGY", "protein production": "not failed"}, {"sequence": "QRSTFGTKHMVFRTDQLIDGIERNVRITSEEVNAALPVPLLDRQDPGAILISGSSYTEPSEALQTMREAMTQEKFSGSVEIPLGIVRALLDLGFTDEAASWLEDLVPRLGNEWRHQWYSGVTSLLLDDYLTAQQHFNEVYNILPGESAPKLARAAVCEMLLQEKGLESTALLDPAVTVAAADIKGEGMSNIWRELTSDPATLRFKAIYLYALVWRTNPTTVSSAFGLARQLAAENQIDLAVSTLDRVPQNSTHRRMAELTAILHLLGDLSEARLRRAARRLEAIPTNEPRFLQIQIAIMNAALQWLRTGGEAANDPIFEYPFTQRGLRNGLSATLRQLARSAPSSHRYALVDVANQVRPMTWF", "protein production": "not failed"}, {"sequence": "QSLELGTMQPSFTSVTGKGGVKVIDGSSVKFGRFDGAEPHCVGLTDLVTEQDGSSMAAGFMQWDNAFFPWTLNYDEIDMVLEGELHVRHEGETMIAKAGDVMFIPKGSSIEFGTPTSVRFLYVAWPANWQSV", "protein production": "not failed"}, {"sequence": "QSNVVIMQDPGGGYGDALRKVMYDPFEKETGIKVVTVQEARSGPRIKAQAEAGKAQWDLTFIFDQETKLLGDCCLADIDYSKLSESAHKTLAAMPDNLKRKKGVALQVIGVGLVYNKDKFKGDKAPQTWADFWDVKKFPGRRCMPAWPRFTFEAALMADGVTKDKLYPIDMDRALKKLKEIKPHVVKWWTTAAQPPQLILDGEADMCLAYTGSMSKLALEGAPIDLTFNQGFVYYDFFSIPKGAPNYDNALKLLSWRLDPKRAAQLTSTFPVALPSKVVFDAATDKNIARYWANNPENVAKAIEWSPDFWGAPSPAGNSTNEEYGQEKLNAMLAQ", "protein production": "not failed"}, {"sequence": "QYCWQHRFPTGYFSICDRYMNGTCPEGNSCKFAHGNAELHEWEERRDALKMKLNKA", "protein production": "not failed"}, {"sequence": "RAKALQKVKEAITLHGGQTILSTGITGDDARLAKAVCEAGVKLLEPNHPALALARGHKGVSNMHAAEQIRHEITNSQMAEAVHGVRNVVPDDIFITVGIAGGFTETLPVPLSEKEILEIARAGADGLHTHKSDWDDLQDIVNLAHQYGLTVDAYIGHPDDLHTFGIPARTPEEVASVAKRMQDIGVDMIGLMTGMSYEGVAAGDIPQMIKDRLRALVGAVDVPTLAEGGINLANAKAFKDTGVNILVVGTAI", "protein production": "failed"}, {"sequence": "RDFLPALGSMRPPIIIHRAGKKYGFTLRAIRVYMGDSDVYTVHHMVWHVEDGGPASEAGLRQGDLITHVNGEPVHGLVHTEVVELILKSGNKVAISTTPLENTSIKVGPARKGSY", "protein production": "failed"}, {"sequence": "RDRRDSRLRVAASMTIAEYLLPGWLVALRAQLPDTAVSLLAGNSAAVAERLLADDADLGFVEGVSVPTGLDSAVIGHDRLIVVTAPGHPWARRRRPLEAAELAATPLILREKGSGTRQVLDAALGGLARPLIELSSTTAVK", "protein production": "failed"}, {"sequence": "REHNYPDTCFEHFVASSVAVYPVFELAAKSTGRIGQLLRSAVYESSAWQQGGNTHFGAFLLLIPLAMAAGEISREQGEQPGCGKTFFRIEAEEFENLASHAHAFVRETDCEDAVEFYRAFGHAGVRVNSVEEFDLEDPEATSDLRNQNITLYSLMEIAKGYDLIANEWTSGFGRCLEGAKIILDFMDARNCREEALAGGSVSICSGTGINEAVVYTFLKLLSKHRDTFIQTKFDAETADYVSSRAGEVLSGWEISGKKAGDFASILPRIQEFDSELLDKRINPGSTADIIIAALFIALLGGLR", "protein production": "failed"}, {"sequence": "RFEHGTVLAECLSPASPDTSCELLKRAAKFLAYVHGSDDPASGRIGGVRKEVRNEVRMWLRAVLPDEPSDGANELFEEWWALLEGIGLPPQPRRDAHAFNWLVTDNDRIIAVDLEAARWRPMGYELAQLT", "protein production": "failed"}, {"sequence": "RGIAVYVEHHNGNIHPVTYELIGKAREMASKIKQPVYCVFVGKDIKDKCSNLISYGVDEVFVYDEDEFKDFRIEPYSKAIENFIDKIKPTIVLVGGTTLGRSLAPRLAARFRTGLTADCTILDIQSNTDLDQIRPAFGGNIMAHINTPNNRPQFATVRYKIFSAPEKIENTTGKITLCKVEKKELKSKIKVLS", "protein production": "not failed"}, {"sequence": "RGIIRLIKDNKSLTMKNTEVMLHGSSLAFDASTLEIYAALLNGACLSIIDKEDLIDSQTLKEKLKNDHVNRAFFTTPLFNSLCEQDPSVFNELEQVIIGGDRASNKHLKIVMKNSKKTQFYNGYGPTENTVFTTMHNIQYSELEGDIPIGKA", "protein production": "failed"}, {"sequence": "RHLVKVPCRIGASHTTGRLILPTLLANLSAVSDRFDFQVTLANSAEILTAMSQHKLDFGLVEKPLVTDQLNRLPFGHDELVHAGDFASPLWLLREPNSGVRHYTNAFLKARNIQPAQVMVIHSNQII", "protein production": "failed"}, {"sequence": "RLEITPEAFLSDPTPAGVAARAAYELDPDIHVLPLADGTGEPLYLLHPSGGDVLCYMGLARELQGRPVYAVADPGLEDTPMPVDLDVVALTYGRVIMAHRAGLADTGKHGVREATAGYLIGGWSMGGTVAQRVAVQWRDQGIAVGALVLIDSNSPDRIRALTGMNDREVDAEFARRYLRSLQAFGAKAVDASAVTESDPASGVARALAGQGLALKDVERRISVFTRHLAGLAQLRVRPLVDVPTLLVIAEHQSPANSGVGMGVDDARDTEHLGWDDNLPTSTTEIMVPGHHYSVLSAPGLEIISEQIRELLA", "protein production": "failed"}, {"sequence": "RLKVEDALSYLDQVKLQFGSQPQVYNDFLDIMKEFKSQSIDTPGVISRVSQLFKGHPDLIMGFNTFLPPGYKIEVQTNDMVNVTTPGQVHQIPTHGI", "protein production": "failed"}, {"sequence": "RMSHHYATIEVSQQLRQLLGDQLVILLRETPDGQALERSQNDFRRVLEQGRANTVDSAEQAALDGVRDAYLQLQAHTPALLEAPMADNDGFSEAFNGLRLRLQDLQQLALAGISEAE", "protein production": "not failed"}, {"sequence": "RNGLDLTTYEGQVEGVEIASDPNLKIVGMMTHFPNEGLDEIRRKVDRFKVETKWLMDSAGLKRKDITLHVANSYITLNLPEAHLDMVRPGGMLYGDYPATLPYERIVSFKTRIASLHFFPAGSTIGYGSTKVLERDSILANLPIGYSDGFARSLSNKADVLINGQRARVMGKASMNTTMVDVTDIIGVQANDEVVVFGRQGFEEITAEETEEKSGRILPEHYTIWGATNPRVYR", "protein production": "failed"}, {"sequence": "RNKPKGHLRIAIGGSTACDVLIPLLADFMTSWPDIRINLQVADKPADLISGNIDSAIRGGPMEDSTLIARKIGEATLVTCATPGYLQRYGTPASPDELHHGHRLISYLSPASGRAFPFRFTRH", "protein production": "failed"}, {"sequence": "RNLEMIDMQIAGTEQLTAFVTFAAANIGAPEQWLTQYYGNLIERKELFGYWHKGKLLAAGECRLFDQYQTEYADLGMIVAQSNRGQGIAKKVLTFLTKHAATQGLTSICSTESNNVAAQKAIAHAGFTSAHRIVQFEFKHA", "protein production": "failed"}, {"sequence": "RPQNTNSWQKDSIEGIDIMLAMDVSGSMQAMDFKPNRLEAAKDVAISFINNRPNDNIGMVTFAGESFTQCPLTTDHTVLLNMVQDLQMGVLDDGTAIGMGLATAVNRLKDSKAKSRVVILLTDGSNNMGDITPRMAADIARTFGIRVYTVGVGTRGEAPFPIQTEFGVRIQNVPVDIDEPTLDGIAEVSGGKYFRAVDNETLNEIYKEIDKLEKTRLMT", "protein production": "failed"}]}]}
